{"source": "paper PMC11592157", "about": "“Exploring the Biological Activity of a Humanized Anti-CD99 ScFv and Antibody for Targeting T Cell Malignancies” (Biomolecules, 2024)", "binders": {"B1": {"name": "mouse anti-CD99 monoclonal antibody MT99/3 (antibody, V domains shown)", "VH": "VQLQQSGAELVKPGASVRLSCTLSGFNIKDTYIHWVNQRPEQGLEWIGRIDPGNGNIKYDPKFQGKATITADTSSNKVYLHLSSLTSEDTAVYYCARSGGYDFDYWGQGTTLTVSS", "VL": "DVVMTQTPLSLPVSLGYQVSISCRSSQSLVHSNGNTYLHWYLQKPGQSPKLLIYTVSNRFSGVPDRFSGSGSGTDFTLKISRVEAEDLGVYFCSQSTYVPYTFGGGTKLEKK", "notes": "mouse IgG heavy constant region; Parent antibody of m1 and m2; also called mAb MT99/3; mouse MT99/3"}, "B2": {"name": "HuScFvMT99/3 (HIS6X) (scFv, V domains shown)", "VH": "QVQLQESGPGLVKPSETLSLTCTLSGFNIKDTYIHWVRQPPGKGLEWIGRIDPGNGNIKYDPKFQGRATISADTSKNQVSLNLDSVSAADTAIYYCARSGGYDFDYWGKGSTVTVSS", "VL": "VQMTQSPSSLSASVGDRVTITCRSSQSLVHSNGNTYLHWYQQKPGKAPKLLIYTVSNRFSGVPSRFSGSGSGTDFTFTISSLQPEDIATYFCSQSTYVPYTFGPGTKVDIK", "notes": "V-KAPPA domain of HuScFvMT99/3; linker of the ScFvkh format (V-KAPPA-linker-VH); VH domain of HuScFvMT99/3; order V-KAPPA-linker-VH; cloned NdeI/XhoI into pET-21a; also called humanized single-chain Fv MT99/3; humanized ScFv variant of mAb MT99/3; source: E. coli Origami B (DE3), purified (Ni-NTA agarose); not shown: His6, C-terminal, kept"}}, "key": {"[1]": {"target": "T1, CD99 peptide number 6 (Biotin-Ahx-AVVDGENDDPRPPNP) (Homo sapiens)", "T1 construct": "stretch of human CD99", "T1 chain": "{Biotin-Ahx}-AVVDGENDDPRPPNP", "assay": "BLI; Biotin-Ahx-AVVDGENDDPRPPNP (10 ug/mL) loaded on streptavidin biosensors; antibody 0.625 to 10 ug/mL in PBS with 0.05% Tween 20; Octet K2", "conditions": "both partners purified"}, "[2]": {"target": "T2, CD99 peptide number 6 (Biotin-Ahx-AVVDGENDDPRPPNP) (human)", "T2 peptide": "{Biotin-Ahx}-AVVDGENDDPRPPNP", "assay": "BLI"}, "CD99ExhIgG": {"target": "T3, CD99ExhIgG (Homo sapiens, UniProt P14209)", "T3 construct": "extracellular part of human CD99; also called CD99ExIgG; recombinant CD99ExhIgG; source: HEK293T stably expressing, culture supernatant, purified (HiTrap Protein G)", "T3 sequence (P14209 23-122)": "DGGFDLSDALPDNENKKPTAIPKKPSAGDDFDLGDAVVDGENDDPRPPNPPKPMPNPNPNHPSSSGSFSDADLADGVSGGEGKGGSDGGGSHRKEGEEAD", "assay": "ELISA; indirect ELISA; CD99ExhIgG (or CD147Rg as negative control) coated on the plate at 4 °C overnight; purified HuScFvMT99/3 (HIS6X) at 1, 5 and 10 ug/mL, room temperature 1 h; detected with HRP anti-His tag antibody", "conditions": "both partners purified"}}, "note": "Where no end group is shown, it is not given here. The star is where a group is joined. Biotin = O=C1N[C@H]2[C@H](CS[C@H]2CCCCC(=O)*)N1; Ahx = NCCCCCC(=O)O", "data": [{"binder": "B1", "values": [{"measurement": "Kd", "setting": "[1]", "result": 316, "unit": "pM"}, {"measurement": "koff", "setting": "[2]", "result": "8.06e-05", "unit": "s⁻¹"}]}, {"binder": "B2", "values": [{"measurement": "binding result", "setting": "CD99ExhIgG", "result": "binds"}]}]}
